This note sets out measurements from doi:10.1101/2022.10.17.512557.

This test deals with proteasomal catalytic (20S) particle (rat (endogenous in cultured cortical neurons)) (UniProt P48004). In words: native gel or EMSA.
Chain of UniProt P48004 (P48004 whole entry, looked up): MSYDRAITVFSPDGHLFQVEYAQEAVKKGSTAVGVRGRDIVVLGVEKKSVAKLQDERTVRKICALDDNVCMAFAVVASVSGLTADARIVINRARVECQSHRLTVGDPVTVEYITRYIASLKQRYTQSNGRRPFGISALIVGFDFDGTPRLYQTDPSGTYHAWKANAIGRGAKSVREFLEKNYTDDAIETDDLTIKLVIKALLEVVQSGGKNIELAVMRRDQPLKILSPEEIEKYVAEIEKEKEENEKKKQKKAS

Take “proteasomal regulatory (19S) particle (from UniProt P62193 1-440) (complex)”: the percent of total 20S in the free 20S band (neurite fraction) stood at 50%.
